According to patent US10058586B2, “Use of human small leucine zipper protein in adipocyte differentiation procedure” (Korea University Research and Business Foundation, priority 2013, dated 2018):

Experiments:
HDAC3 = target: T1, HDAC3 (Mus musculus, UniProt O88895); assay: Fluorescence microscopy, subcellular localization of sLZIP and HDAC3 in C3H10T1/2 cells; assay type: cell-based; details: GFP-sLZIP, anti-HDAC3
T1 construct: endogenous in cells; host or cells: C3H10T1/2 cells expressing GFP-sLZIP
T1 sequence (O88895 1-428): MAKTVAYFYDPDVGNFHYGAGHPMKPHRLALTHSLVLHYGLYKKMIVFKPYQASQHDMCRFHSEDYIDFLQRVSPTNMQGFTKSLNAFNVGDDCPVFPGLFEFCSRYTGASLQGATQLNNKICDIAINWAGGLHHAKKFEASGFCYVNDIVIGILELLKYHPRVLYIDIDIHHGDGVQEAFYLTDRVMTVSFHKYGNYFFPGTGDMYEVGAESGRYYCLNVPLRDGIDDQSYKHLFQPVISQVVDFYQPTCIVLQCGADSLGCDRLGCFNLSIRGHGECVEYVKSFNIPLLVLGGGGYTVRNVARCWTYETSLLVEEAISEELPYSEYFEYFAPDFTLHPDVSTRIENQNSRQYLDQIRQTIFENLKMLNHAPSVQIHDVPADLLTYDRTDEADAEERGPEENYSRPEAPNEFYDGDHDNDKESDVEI
Description: C3H10T1/2 cells were transiently ci-transfected with Flag-sLZIP, GFP-PPARγ2 or GFP-sLZIP, and HDAC3 was grown on cover slip. After 24 hours, the cells were fixed with 4% paraformaldehyde for 10 minutes and permeabilized 0.2% Triton-X 100 for 5 minutes. The cells were incubated with 1% BSA for one hour, and then incubated with anti-Flag and anti-HDAC3 antibodies overnight at 4° C. The cells were washed with PBS, and then were incubated with Texas Red-labeled antibodies for 2 hours. A cover slide was washed with PBS, and mounted on and examined using a LSM 510 META confocal microscopy (Carl Zeiss, Jena, Germany).
For this purpose, 293T cells were transiently transfected with PPARγ2 (0.5 μg), (3-galactosidase (0.1 μg), FABP4-Luc reporter genes (0.2 μg) and sLZIP (0.1 μg). After the transfection, the cells were stimulated with or without 10 nM of RZD and 10 nM of TSA (FIG. 4A). A promoter activity was measured according to luciferase analysis. In the 293T cells, FABP4-Luc reporter genes, sLZIP, PPAR, β-galactosidase, and 100 nM of si-RNAs and HDAC1, 2, 3 and 8 for a control group were expressed. After the transfection, the cells were stimulated with or without 10 nM of RZD, and a promoter activity was measured (FIG. 4B). […] A protein complex was analyzed in SDS-PAGE, and anti-GST and anti-Flag antibodies were used for immunoblotting (FIG. 4E). *, P<0.05; **, P<0.01

PPARγ2 = target: T2, PPARγ2 (Mus musculus, UniProt P37238); assay: FABP4-Luc stable C3H10T1/2 cells infected with sLZIP-expressing adenovirus and differentiated into adipocytes; assay type: cell-based; details: sLZIP adenovirus, differentiated into adipocytes for 4 days
T2 construct: endogenous in cells
T2 sequence (P37238 1-505): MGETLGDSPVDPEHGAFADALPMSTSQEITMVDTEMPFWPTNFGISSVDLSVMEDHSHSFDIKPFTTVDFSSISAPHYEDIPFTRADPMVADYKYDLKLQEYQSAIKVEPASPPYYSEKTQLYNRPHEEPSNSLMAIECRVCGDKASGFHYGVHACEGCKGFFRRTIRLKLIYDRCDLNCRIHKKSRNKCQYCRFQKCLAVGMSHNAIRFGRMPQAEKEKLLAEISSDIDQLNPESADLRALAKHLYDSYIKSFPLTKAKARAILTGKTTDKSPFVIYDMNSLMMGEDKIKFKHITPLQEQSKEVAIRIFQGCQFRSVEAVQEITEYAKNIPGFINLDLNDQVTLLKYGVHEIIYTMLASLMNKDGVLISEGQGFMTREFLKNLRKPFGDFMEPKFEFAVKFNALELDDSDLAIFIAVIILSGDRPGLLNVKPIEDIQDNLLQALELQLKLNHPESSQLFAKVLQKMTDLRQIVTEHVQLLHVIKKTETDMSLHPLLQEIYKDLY

B1: sLZIP: human small leucine-zipper protein, isoform of LZIP, 354 amino acids, no transmembrane domain; GenBank FJ263669, SEQ ID NO: 1 (protein, listed as Homo sapiens)
chain: MELELDAGDQDLLAFLLEESGDLGTAPDEAVRAPLDWALPLSEVPSDWEVDDLLCSLLSPPASLNILSSSNPCLVHHDHTYSLPRETVSMDLESESCRKEGTQMTPQHMEELAEQEIARLVLTDEEKSLLEKEGLILPETLPLTKTEEQILKRVRRKIRNKRSAQESRRKKKVYVGGLESRVLKYTAQNMELQNKVQLLEEQNLSLLDQLRKLQAMVIEISNKTSSSSMYSSDTRGSLPAEHGVLSRQLRALPSEDPYQLELPALQSEVPKDSTHQWLDGSDCVLQAPGNTSCLLHYMPQAPSAEPPLEWPFPDLFSEPLCRGPILPLQANLTRKGGWLPTGSPSVILQDRYSG
subcellular localization of sLZIP and HDAC3 (HDAC3): localized in the nucleus together with HDAC3
transcriptional activity of PPARγ2 (relative luciferase activity) (PPARγ2): the transcriptional activity of PPARγ2 decreased in adipocytes
